Data taken from patent US20230137032A1 (GlaxoSmithKline, published 2023).

Columns and labels:
[1] = biological target: T1, recombinant cyno BCMA, in house material (cyno, UniProt A0A2K5UD97 4-52); assay: ProteOn SPR run 1, antibody captured on Protein A, 25C
T1 construct: also called Cyno in house BCMA

[2] = biological target: T2, recombinant human BCMA, in house material (human, UniProt Q02223 4-53, limits assumed); assay: as above
T2 construct: also called Human in house BCMA; In house human BCMA
T2 sequence (Q02223 4-53 limits assumed): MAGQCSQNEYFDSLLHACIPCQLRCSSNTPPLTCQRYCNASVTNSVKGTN

T1 sequence (A0A2K5UD97 entry or part of it): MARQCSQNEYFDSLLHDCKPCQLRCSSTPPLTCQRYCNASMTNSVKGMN

B1: CA8 humanised J0M0 (antibody, human IgG1, kappa, V domains shown)
VH: QVQLVQSGAEVKKPGSSVKVSCKASGGTFSNYWMHWVRQAPGQGLEWMGATYRGHSDTYYNQKFKGRVTITADKSTSTAYMELSSLRSEDTAVYYCARGAIYNGYDVLDNWGQGTLVTVSS
VL: DIQMTQSPSSLSASVGDRVTITCSASQDISNYLNWYQQKPGKAPKLLIYYTSNLHSGVPSRFSGSGSGTDFTLTISSLQPEDFATYYCQQYRKLPWTFGQGTKLEIKR
notes: Humanised CA8, heavy chain J0 with light chain M0, human IgG1 kappa; also called CA8 J0M0
Kd [1]: 0.648 nM
Kd [2]: 0.435 nM

B2: CA8 humanised J1M2 (antibody, human IgG1, kappa, V domains shown)
VH: QVQLVQSGAEVKKPGSSVKVSCKASGYTFTNYWMHWVRQAPGQGLEWMGATYRGHSDTYYNQKFKGRVTITADKSTSTAYMELSSLRSEDTAVYYCARGAIYNGYDVLDNWGQGTLVTVSS
VL: DIQLTQSPSSLSASVGDRVTITCSASQDISNYLNWYQQKPGKAPELVIYYTSNLHSGVPSRFSGSGSGTDYTLTISSLQPEDFATYYCQQYRKLPWTFGQGTKLEIKR
notes: Humanised CA8, heavy chain J1 with light chain M2, human IgG1 kappa; also called CA8 J1M2
Kd [1]: 0.303 nM
Kd [2]: 1.14 nM

B3: CA8 humanised J1M1 (antibody, human IgG1, kappa, V domains shown)
VH: QVQLVQSGAEVKKPGSSVKVSCKASGYTFTNYWMHWVRQAPGQGLEWMGATYRGHSDTYYNQKFKGRVTITADKSTSTAYMELSSLRSEDTAVYYCARGAIYNGYDVLDNWGQGTLVTVSS
VL: DIQMTQSPSSLSASVGDRVTITCSASQDISNYLNWYQQKPGKAPKLLIYYTSNLHSGVPSRFSGSGSGTDYTLTISSLQPEDFATYYCQQYRKLPWTFGQGTKLEIKR
notes: Humanised CA8, heavy chain J1 with light chain M1, human IgG1 kappa; also called CA8 J1M1
Kd [1]: 0.442 nM
Kd [2]: 1.51 nM

B4: CA8 humanised J4M2 (antibody, human IgG1, kappa, V domains shown)
VH: QVQLVQSGAEVKKPGSSVKVSCKGSGYTFTNYWMHWVRQAPGQGLEWIGATYRGHSDTYYNQKFKGRATLTADTSTSTAYMELSSLRSEDTAVYYCTRGAIYNGYDVLDNWGQGTLVTVSS
VL: DIQLTQSPSSLSASVGDRVTITCSASQDISNYLNWYQQKPGKAPELVIYYTSNLHSGVPSRFSGSGSGTDYTLTISSLQPEDFATYYCQQYRKLPWTFGQGTKLEIKR
notes: Humanised CA8, heavy chain J4 with light chain M2, human IgG1 kappa; also called CA8 J4M2
Kd [1]: 0.179 nM
Kd [2]: 0.281 nM

B5: CA8 humanised J4M1 (antibody, human IgG1, kappa, V domains shown)
VH: QVQLVQSGAEVKKPGSSVKVSCKGSGYTFTNYWMHWVRQAPGQGLEWIGATYRGHSDTYYNQKFKGRATLTADTSTSTAYMELSSLRSEDTAVYYCTRGAIYNGYDVLDNWGQGTLVTVSS
VL: DIQMTQSPSSLSASVGDRVTITCSASQDISNYLNWYQQKPGKAPKLLIYYTSNLHSGVPSRFSGSGSGTDYTLTISSLQPEDFATYYCQQYRKLPWTFGQGTKLEIKR
notes: Humanised CA8, heavy chain J4 with light chain M1, human IgG1 kappa; also called CA8 J4M1
Kd [1]: 0.203 nM
Kd [2]: 0.278 nM

B6: CA8 humanised J0M1 (antibody, human IgG1, kappa, V domains shown)
VH: QVQLVQSGAEVKKPGSSVKVSCKASGGTFSNYWMHWVRQAPGQGLEWMGATYRGHSDTYYNQKFKGRVTITADKSTSTAYMELSSLRSEDTAVYYCARGAIYNGYDVLDNWGQGTLVTVSS
VL: DIQMTQSPSSLSASVGDRVTITCSASQDISNYLNWYQQKPGKAPKLLIYYTSNLHSGVPSRFSGSGSGTDYTLTISSLQPEDFATYYCQQYRKLPWTFGQGTKLEIKR
notes: Humanised CA8, heavy chain J0 with light chain M1, human IgG1 kappa; also called CA8 J0M1
Kd [1]: 0.503 nM
Kd [2]: 0.373 nM

B7: CA8 humanised J0M2 (antibody, human IgG1, kappa, V domains shown)
VH: QVQLVQSGAEVKKPGSSVKVSCKASGGTFSNYWMHWVRQAPGQGLEWMGATYRGHSDTYYNQKFKGRVTITADKSTSTAYMELSSLRSEDTAVYYCARGAIYNGYDVLDNWGQGTLVTVSS
VL: DIQLTQSPSSLSASVGDRVTITCSASQDISNYLNWYQQKPGKAPELVIYYTSNLHSGVPSRFSGSGSGTDYTLTISSLQPEDFATYYCQQYRKLPWTFGQGTKLEIKR
notes: Humanised CA8, heavy chain J0 with light chain M2, human IgG1 kappa; also called CA8 J0M2
Kd [1]: 0.563 nM
Kd [2]: 0.31 nM

B8: CA8 humanised J3M2 (antibody, human IgG1, kappa, V domains shown)
VH: QVQLVQSGAEVKKPGSSVKVSCKGSGYTFTNYWMHWVRQAPGQGLEWMGATYRGHSDTYYNQKFKGRVTITADTSTSTAYMELSSLRSEDTAVYYCTRGAIYNGYDVLDNWGQGTLVTVSS
VL: DIQLTQSPSSLSASVGDRVTITCSASQDISNYLNWYQQKPGKAPELVIYYTSNLHSGVPSRFSGSGSGTDYTLTISSLQPEDFATYYCQQYRKLPWTFGQGTKLEIKR
notes: Humanised CA8, heavy chain J3 with light chain M2, human IgG1 kappa; also called CA8 J3M2
Kd [1]: 0.159 nM
Kd [2]: 0.362 nM

B9: CA8 humanised J3M0 (antibody, human IgG1, kappa, V domains shown)
VH: QVQLVQSGAEVKKPGSSVKVSCKGSGYTFTNYWMHWVRQAPGQGLEWMGATYRGHSDTYYNQKFKGRVTITADTSTSTAYMELSSLRSEDTAVYYCTRGAIYNGYDVLDNWGQGTLVTVSS
VL: DIQMTQSPSSLSASVGDRVTITCSASQDISNYLNWYQQKPGKAPKLLIYYTSNLHSGVPSRFSGSGSGTDFTLTISSLQPEDFATYYCQQYRKLPWTFGQGTKLEIKR
notes: Humanised CA8, heavy chain J3 with light chain M0, human IgG1 kappa; also called CA8 J3M0
Kd [1]: 0.526 nM
Kd [2]: 1.37 nM

B10: CA8 humanised J4M0 (antibody, human IgG1, kappa, V domains shown)
VH: QVQLVQSGAEVKKPGSSVKVSCKGSGYTFTNYWMHWVRQAPGQGLEWIGATYRGHSDTYYNQKFKGRATLTADTSTSTAYMELSSLRSEDTAVYYCTRGAIYNGYDVLDNWGQGTLVTVSS
VL: DIQMTQSPSSLSASVGDRVTITCSASQDISNYLNWYQQKPGKAPKLLIYYTSNLHSGVPSRFSGSGSGTDFTLTISSLQPEDFATYYCQQYRKLPWTFGQGTKLEIKR
notes: Humanised CA8, heavy chain J4 with light chain M0, human IgG1 kappa; also called CA8 J4M0
Kd [1]: 0.866 nM
Kd [2]: 0.906 nM

B11: CA8 humanised J2M0 (antibody, human IgG1, kappa, V domains shown)
VH: QVQLVQSGAEVKKPGSSVKVSCKASGYTFTNYWMHWVRQAPGQGLEWMGATYRGHSDTYYNQKFKGRVTITADKSTSTAYMELSSLRSEDTAVYYCTRGAIYNGYDVLDNWGQGTLVTVSS
VL: DIQMTQSPSSLSASVGDRVTITCSASQDISNYLNWYQQKPGKAPKLLIYYTSNLHSGVPSRFSGSGSGTDFTLTISSLQPEDFATYYCQQYRKLPWTFGQGTKLEIKR
notes: Humanised CA8, heavy chain J2 with light chain M0, human IgG1 kappa; also called CA8 J2M0
Kd [1]: 0.538 nM
Kd [2]: 1.94 nM

B12: CA8 humanised J1M0 (antibody, human IgG1, kappa, V domains shown)
VH: QVQLVQSGAEVKKPGSSVKVSCKASGYTFTNYWMHWVRQAPGQGLEWMGATYRGHSDTYYNQKFKGRVTITADKSTSTAYMELSSLRSEDTAVYYCARGAIYNGYDVLDNWGQGTLVTVSS
VL: DIQMTQSPSSLSASVGDRVTITCSASQDISNYLNWYQQKPGKAPKLLIYYTSNLHSGVPSRFSGSGSGTDFTLTISSLQPEDFATYYCQQYRKLPWTFGQGTKLEIKR
notes: Humanised CA8, heavy chain J1 with light chain M0, human IgG1 kappa; also called CA8 J1M0
Kd [1]: 0.849 nM
Kd [2]: 2.82 nM

B13: CA8 humanised J3M1 (antibody, human IgG1, kappa, V domains shown)
VH: QVQLVQSGAEVKKPGSSVKVSCKGSGYTFTNYWMHWVRQAPGQGLEWMGATYRGHSDTYYNQKFKGRVTITADTSTSTAYMELSSLRSEDTAVYYCTRGAIYNGYDVLDNWGQGTLVTVSS
VL: DIQMTQSPSSLSASVGDRVTITCSASQDISNYLNWYQQKPGKAPKLLIYYTSNLHSGVPSRFSGSGSGTDYTLTISSLQPEDFATYYCQQYRKLPWTFGQGTKLEIKR
notes: Humanised CA8, heavy chain J3 with light chain M1, human IgG1 kappa; also called CA8 J3M1
Kd [1]: 0.196 nM
Kd [2]: 0.438 nM

B14: CA8 humanised J2M1 (antibody, human IgG1, kappa, V domains shown)
VH: QVQLVQSGAEVKKPGSSVKVSCKASGYTFTNYWMHWVRQAPGQGLEWMGATYRGHSDTYYNQKFKGRVTITADKSTSTAYMELSSLRSEDTAVYYCTRGAIYNGYDVLDNWGQGTLVTVSS
VL: DIQMTQSPSSLSASVGDRVTITCSASQDISNYLNWYQQKPGKAPKLLIYYTSNLHSGVPSRFSGSGSGTDYTLTISSLQPEDFATYYCQQYRKLPWTFGQGTKLEIKR
notes: Humanised CA8, heavy chain J2 with light chain M1, human IgG1 kappa; also called CA8 J2M1
Kd [1]: 0.218 nM
Kd [2]: 0.842 nM

B15: CA8 humanised J2M2 (antibody, human IgG1, kappa, V domains shown)
VH: QVQLVQSGAEVKKPGSSVKVSCKASGYTFTNYWMHWVRQAPGQGLEWMGATYRGHSDTYYNQKFKGRVTITADKSTSTAYMELSSLRSEDTAVYYCTRGAIYNGYDVLDNWGQGTLVTVSS
VL: DIQLTQSPSSLSASVGDRVTITCSASQDISNYLNWYQQKPGKAPELVIYYTSNLHSGVPSRFSGSGSGTDYTLTISSLQPEDFATYYCQQYRKLPWTFGQGTKLEIKR
notes: Humanised CA8, heavy chain J2 with light chain M2, human IgG1 kappa; also called CA8 J2M2
Kd [1]: 0.106 nM
Kd [2]: 0.482 nM
